From a protein production outcome set (Wang et al. 2014) come the findings set out here.

A short description of this data set: label from the status in PepcDB records.
For “MPKKAREWGALDVKRAAHPGDGANVWHAVGGVAGLLLQITPTGAKSWLLRTTVAGTRRAMGLGSYPEVGLAEARERAREAKRKIAAGVDPIEERKATRAALAAAQRRSLTFADAADKWIKAKLSDRPEKSQKAVRATLTAYSFPEIGALTVQELTPQDVVRALNTIWTAKPDTATKMRGYLEAILSWATVSGYRTGDNPARWAGNLKELLPAPSVVAKGRAGNFPAVPVARLADWWEELGQREGMGATALRFAALTAARSGEVRGALWSEVDLDAALWVVPGARMKMGREHRVPLSGPAVALLRGLPRLAGTGDLIFPGPRGGILSDMSVSAVMRRMQEDAETEAKMAGRPVSAAGWRDTRTGRPAVPHGLRSSFRDWAAEVGYDRDMAEIALAHLVGSEVERAYRRSDMLERRRAMMERWADVLAGRSGASVVEFRRA”, the protein production result is recorded as “failed”.
For “MPKNKGKGGKNRKRGKNEADDEKRELIFKEDGQEYAQVLRMLGNGRCEAMCIDGTKRLCHIRGKMHKKVWIAAGDIVLVGLRDYQDDKADVILKYMSDEARLLKAYGELPENTRLNEGIVGDLEDDDDNNDDDYVEFEDEDIDRI” the value was “failed”; for “MPLCLRNAQQDDTQRLSQIARQTFALACPPDTPATEIEAFIQENLLPEHFSALLEAPGKQLRVLLDDNRVIGYSLVNLHPQDLGVAGADGIAELTRCYLDAAHHGSGAAQFLLAQTLAQQPGPLRLTVNEHNARAIRFYQRNGFVRVGETLFPCGADLHRDWVMLRR”, “failed”; for “MPLGHLFDKSYDEMHCNQKNWEMAERKLMEDAVQSALSKQNLKKEDIDIFLAGDLLNQNVTANYVARHLKIPFLCLFGACSTSMESIAISSALIDGGFAKRALAATSSHNATAERQFRYPTEYGGQKPGTATSTVTGSGAVVLSQQPGGIKITSATVGRVIDLGITDSQDMGSAMAPAAADTIKQHLEDLGRTPDDYDLILTGDLSGVGSPILKDLLKEEGINVGTKHNDCGLMIYTPDQQVFAGGSGCACSAVVTFAHIFKEIEAGRLNRVLVVATGALLSPTIIQQKESIPCIAHGVVFERAERGNALEHHHHHH”, “not failed”.
Turning to “MPLHNLTRFPRLEFIGAPTPLEYLPRFSDYLGREIFIKRDDVTPMAMGGNKLRKLEFLAADALREGADTLITAGAIQSNHVRQTAAVAAKLGLHCVALLENPIGTTAENYLTNGNRLLLDLFNTQIEMCDALTDPNAQLEELATRVEAQGFRPYVIPVGGSNALGALGYVESALEIAQQCEGAVNISSVVVASGSAGTHAGLAVGLEHLMPESELIGVTVSRSVADQLPKVVNLQQAIAKELELTASAEILLWDDYFAPGYGVPNDEGMEAVKLLARLEGILLDPVYTGKAMAGLIDGISQKRFKDEGPILFIHTGGAPALFAYHPHV”, the protein production entry is “failed”.
Consider “MPLKRLGHRVLGLVLAAMLLYGGLAPPVRNFFALPWQQRLPAAAPISLPWELPPGLARQVEVKVNSGDWSRATTGDFPRWLQLQLKLFGFIPLKNITIQLVQPVDVSPGGQAIGVFLKTEGVQVVGQAAIVDERGNKVYLARQAGLETGDAIIAIDGQKVTSDQEVANLINAAGQANRQARITVKREGHLLTLNIHPRYCQETGRYRIGVYVRDSTAGVGTLTFYDQNKGVFGALGHVVTGSDGQTAMDISGGRIVAAAIQGIHQGYRGQPGEKLGVFLENGQFSGTIQKNTIVGIFGTITGKLPGNKEIPVALADTVHPGPAEILTVIEGEKVESFQVEIERVMPHQRASGKGLVLRITDPRLLAVTGGIIQGMSGSPIIQDGQLAGAVTHVFINDPTRGYGVLAEWMLQETELVPKDKARGATVETPGSFLFVVFCVG”, for which the protein production entry is “failed”.
As to “MPLPPDITFDSLALIKMHSQNMKRILEVTLAKFTVNLSIVTVYRYLTARAYLKKNIEAEFEILKDIYNIVPLLDDIAIKAAQIEANLIKKEITLDMEDIITATTAIYTNSLLVTDDPKRYEPIRRFGLDTMPLDKFIKEVELMVEKELI”, the protein production result is listed as “not failed”.
Regarding “MPLRCTKPLGATPATPTAPPTGRKGHQVAINGFITWILVTMSLVVYFLWAFIPTSFLDMVLASYYPDKYWAVAIPAILVMTMVYYLTVHFLLMLYRTDPLTDGFCVAQTNGAVRHESIENLVDVEDGVPPITDIPVSVASRLLFQPWN”, the protein production result was “failed”.
Then “MPLVNSHIVEECLPFTSLRLDPEDINLSMGAGYVPDAEIQAISDALETEIAGICTPRFLYALFDAEPAGTCEVGVNGISLKTGSVITPYLKDAAGYVLFVATAGYEFEAFQHRIGSQGDILREFLLDAYGSAIAEAVVREVCRKVESRMFPLGYGVSHPYSPGYCGWHVTQQQLLFSCLPEFPCGVRLSDSSLMSPIKSVSGIIAYGPCIVKRKYGCELCGKADCYKNRNKLNRLEHHHHHH”, with “not failed”.
Take “MPLVSMKEMLNKALEGKYAVGQFNMNNLEWTQAILAAAEEEKSPVILGVSEGAARHMTGFKTVVAMVKALIEEMNITVPVAIHLDHGSSFEKCKEAIDAGFTSVMIDASHHPFEENVETTKKVVEYAHARNVSVEAELGTVGGQEDDVIAEGVIYADPAECKHLVEATGIDCLAPALGSVHGPYKGEPNLGFAEMEQVRDFTGVPLVLHGGTGIPTADIEKAISLGTSKINVNTENQIEFTKAVREVLNKDQEVYDPRKFIGPGRDAIKATVIGKIREFGSNGKA”: the protein production entry is listed as “not failed”.
With “MPMMNLIYLHGFRSSSLSIKGQQLKHYCQAFPYIQVHLPDLNLPPHEVIKKIENMIQSMDQVALIGSSLGGFYATQLVAKYQIPAVLINPAMRPWQLFRQLFSDQTLPYTVCETWTLDEQQLTEMEKIAVPVVQAADKILVLLQQGDEVLDYREAERYYSQPAHPSLIFTDAHGNHAMEDFENKLPLILAFL”, the protein production entry is “failed”.
Take “MPNDTHAQTGASGPTTLFTNANVLTVDAEFSTAQAIAIRGNRILAVGSDAEVRAAAGDDATVVDLEGKTVLPGFIDAHAHAVSGSVVDAIMDYVGMARFTTVDEVLNHIATRAAKTPAGDWLVFRNFDPAVQEGADALTFAELDPISTDHPIFILNASGHLAYANSRAFEVSGLTNDVPNPPGGEFVRDADGNLTGTIKNNVAFLQIAENYPAMKQVNPVEGLLGLLGKWSQQGLTTVSELSLGALAQSPADVQVMAAAAQSGRMTARLRAYPFYTLGTETWDNAGVKQGDGNALARVAGYKLVADGSNQGFTGLQREPYLNREDRGLAYMEPDELTTTALERAGKGWHLAIHGNGDAAIDNILDTCQALADAGIDMARVRPRIEHCSILHDEQIARMKALGVSASFLIGHVHYWGVAMRDQVFGLEKAQLLDRCKSVEEAGVGFTLHSDFMVTDPNPLHMIEMAVTRRTWKEPDYVLAPQERISVDSAIRAMTSEAAWQLFSDHEIGSLEPGKLADMVILDQDPRKVAPDEIKAIKVLETWMDGQRVFAA”: the protein production entry is “failed”.
With “MPNHDYRELAAVFAGGALGALARAALSALAIPDPARWPWPTFTVNVVGAFLVGYFTTRLLERLPLSSYRRPLLGTGLCGGLTTFSTMQVETISMIEHGHWGLAAAYSVVSITLGLLAVHLATVLVRRVRIRR”, the protein production result is listed as “failed”.
Then “MPNILYKIDNQYPYFTKNEKKIAQFILNYPHKVVNMTSQEIANQLETSSTSIIRLSKKVTPGGFNELKTRLSKFLPKEVTQYNVELVDNESTISLKNKLHSRSKAAL”, with “not failed”.
For “MPNSRLEGELPGGGVVTFDTDLPIAAHADEIADLIKHHQVVVVAGETGSGKTTQLPKICLALGRRQIAHTQPRRIAARSVAERVAEEMGVELGEQVGYQVRFTRRASSDTALTVMTDGVLLAEISHDRDLCAHDTIIIDEAHERSLNIDFLLGYLKQLLPRRPDLKVIITSATIDTARFSAHFDDAPVIEVSGRTYPVEVRYRPLDPSEQIRPDDEDDIDDEDELLHRPSAPSLTSPDDEVVDQVTGICRAVQELCREESGDILVFLAGEQEIRETAEALADLNLSNTEVLPLFARLSAAEQHRVFTPHTGRRIVLATNVAETSLTVPGIRYVIDPGTARISRYSVRTKVQRLPIEPVSQASANQRAGRCGRVAPGICIRLYSQTSFESRPEFTEPEILRTNLAAVILQMAQARLGAITDFPFVEAPDRSRINDGIRLLDELGALKPGHRDASRLTKIGHQLARVPLDPRLGRMLLEGARQGSLAEVLVIVAALSIRDVRERPADKREEADAFHRRFATEANLLQTLQAADNTDNNQVGDWSQVRRQHIHQEAANTAKPGPPARHTPHTRGKISPRPQAGGIDEGGDIMAIHRLWRYLRHQRRQMGSSAFRRMCRAEYINYLRVREWDDLHGQLRQIAKELHLEVNRTSAPTDRVLVALLSGLLSHIGLVQVRQPAKRHGQRPGPQEYLGARGTKFAINPGSLLARKSPELVVAVELVETSRLWARTVAAVQPEWVEEVAGPLIRRSWAVPHWAASTASVVATERGTLFGVPLWADRRVTYGRIDPVASRQIFIRSALVERNWRSDHGFLKHNDRVRDEAADLEERSRQRGLVADDDAIFAFYDRRIPDGIVSGSHFDAWWRRVQDRHQLDLSIDDLVDSGSVDADAFPDHWKVGNLELPVRYVFEPGSGHDGVTVTIPLALLNQVPTAPFSWQVPGLRTELATELIRALPKRIRTQLVPAPDRARAALTWLEDHDADRHAPFTNELGRALRTLTGVIINPDDWNIAAIPAHLRIGFDITDAEGRPVGKKSKKNGKDKLKGSQPAPIARSEDLDALQTDLAPKVSQSLTKAAGQPQIHGAKEWTFDPIPKRVDLSRKGPDAVGYPCLVDEGDSVGTTVLDTPRAQRTSHASGVVKLLVLNLPDPTKWVVTHMDNATKLALATSPYPSVPALLADARHKAVASVAQEKAGDLSGIRDKKTFDDLALVVRQDQADRMARVVRTAGRILSRVVAARQALATVSDPAIHADIVAQIDDLVFENFISATPDPWYDDMPRWIQGVSVRIESLMTNPSRDPRQMAELEPLLADYDALCEEQPAGKLPAEVEEIGFMLEELRVQYFAQKLGTRVSVSPKRIRMAIAKLS” the value was “failed”; for “MPPELNWQEIDTVLLDMDGTLLDLEFDSHFWLKQVPETLSQRRGISLEQAHKIIHDEYLAVQHTLNWYCFDYWSERLDLDIYAMTTQAGNRVRLRQDTQPFLASLRERGLQTILLTNAHPHSLAVKIEHTALDQHLDLLLSTHTFGYPKEDQRLWQAVTQHTGLNPARTLFVDDSEKILDAARTFGIRYCLGIENPDSSCADKAFHSHPAINDYRKLLPALELRK”, “failed”; for “MPPIIKRRVMRKIIIASQNPAKVNAVRSAFSTVFPDQEWEFIGVSVPSEVADQPMSDEETKQGALNRVRNAKQRHPGAEYYVGLEAGIEENKTFAWMIVESDQQRGESRSACLMLPPLVLERLRQAKELGDVMDEVFGTENIKQKGGAIGLLTRHHLTRSTVYHQALILALIPFINPEHYPSA”, “not failed”.
Then “MPPQPDAAPPPLPPELAPLLPTDPVTIGPFRVIGRLGSGGMGAVYGALDAEHRCVAVKVIHAEHVRRPEYRELFAREAELVSRIDAECTPRFLGADPNAPEPWLATEFVPGRTLQQHVREFGPLDEAALRAFAAGTAEALAAIHAAGVVHLDVKPGNIMLAPDGPKVLDFGIARAIGDTTDKNVYGTPGWAAPERLDRQPGTPAADMFAWGGLIVFAATGRSPFGTGTSAELLERVRAGDCDLTGVPEELMELVARALSTDPEARPTAVEAFHTVLALDTVAADAIEEPGEDAAAIHRKRLRALLHRVWTGFDAAGHRPELWMALGTAAGGVGVAAGGAAALATQGTAGGGAAAGSGKLVGTASAAGGGASWGAGAGTLTKSATVTAAGTGLSGKAMLTVAAGATAAAVAGGWLVGRAVTDQPLLPFTDPEPSATAALAPSPEEDEKEGQEVRFRNLTLWFPEDWTVHVIEDIEFVGFGPDHEGREIVDDWIAAHPPGNPGCAEVDWNHWEWPAALVECPHIRILGPGGITYGGAVYEPITEEPDAGLFAPSQNPLPCIPGIDAYEADPASFPGQSPLVEELAPVGDRSALYREYLTPCGNPDGRDPELLYYTQRSWFLPESQILIVDEYGIEDIDAILADGEFASRSEED”, with “failed”; and “MPQIQSSHSNHFDFTIDTADRTKLLMSYLVVPTTANFNNVMHGGELLNLLDKVAYVCSTRYCAKGTVTLSVDGVTFKYPIPVGNLLTFLASINYVGNTSCEVGIKVLSEDIKTREITHTNSCYFTMVAVENGKPTPMPKYEPKTEVEIRRYEGALKRKEMRTRGYLKSGKHEGV”, with “failed”.
